According to patent US9156883B2, “Binding molecules for human factor VIII and factor VIII-like proteins” (DYAX CORP., priority 1999, dated 2015):
Positions of bridges follow the written chain, without caps; N, C: chain ends. No end group written: not given here. *: point of attachment. NHNH2 = NN*

How the values were obtained:
[1] = Peptide stability, Asp-Pro changed to Glu-Pro; type: physicochemical; settings: DP changed to EP versus GI-2; Asp-Pro hydrolysis particularly at low pH
Description: Binding polypeptides were synthesized with the amino terminal residue acetylated and the carboxyl terminal residue as a free acid. The two cysteine residues are oxidized and form a disulfide bond which creates a cyclic peptide structure. The residues contained within the cyclic structure are underlined. The peptide sequence is identical to the sequence GI-2 shown in Table 4 except that the aspartic acid residue at position 19 has been changed to glutamic acid (bold).

[2] = biological target: T1, factor VIII-like polypeptide (REFACTO®) (Homo sapiens, UniProt P00451); test: Affinity chromatography capture and elution of REFACTO® on immobilized peptide columns; type: binding; settings: bound material eluted in the presence of ethylene glycol
T1 construct: amino acids 1-743 and 1638 through 2332 of human factor VIII; purchased Genetics Institute, Inc. (Cambridge, Mass.)
T1 sequence (P00451 20-762): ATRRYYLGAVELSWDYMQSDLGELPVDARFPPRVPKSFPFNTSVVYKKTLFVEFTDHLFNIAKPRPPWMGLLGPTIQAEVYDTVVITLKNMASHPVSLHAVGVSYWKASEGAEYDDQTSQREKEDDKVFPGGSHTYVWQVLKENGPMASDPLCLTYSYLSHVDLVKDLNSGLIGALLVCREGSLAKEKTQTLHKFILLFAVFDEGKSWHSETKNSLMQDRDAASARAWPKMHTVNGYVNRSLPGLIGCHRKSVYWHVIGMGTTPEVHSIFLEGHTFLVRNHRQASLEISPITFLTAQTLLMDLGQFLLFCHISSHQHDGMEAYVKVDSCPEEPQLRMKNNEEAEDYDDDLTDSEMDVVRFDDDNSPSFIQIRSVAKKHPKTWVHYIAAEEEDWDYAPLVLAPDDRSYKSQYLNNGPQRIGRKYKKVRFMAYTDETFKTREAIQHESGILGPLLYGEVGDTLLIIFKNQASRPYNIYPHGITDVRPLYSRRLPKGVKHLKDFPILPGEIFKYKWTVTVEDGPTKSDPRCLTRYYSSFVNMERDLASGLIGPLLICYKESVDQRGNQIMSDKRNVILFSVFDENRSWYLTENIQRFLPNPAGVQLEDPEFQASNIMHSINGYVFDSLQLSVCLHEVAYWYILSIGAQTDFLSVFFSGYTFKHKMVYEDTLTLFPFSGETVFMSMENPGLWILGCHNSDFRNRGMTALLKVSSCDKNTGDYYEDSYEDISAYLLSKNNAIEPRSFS
T1 sequence (P00451 1657-2351): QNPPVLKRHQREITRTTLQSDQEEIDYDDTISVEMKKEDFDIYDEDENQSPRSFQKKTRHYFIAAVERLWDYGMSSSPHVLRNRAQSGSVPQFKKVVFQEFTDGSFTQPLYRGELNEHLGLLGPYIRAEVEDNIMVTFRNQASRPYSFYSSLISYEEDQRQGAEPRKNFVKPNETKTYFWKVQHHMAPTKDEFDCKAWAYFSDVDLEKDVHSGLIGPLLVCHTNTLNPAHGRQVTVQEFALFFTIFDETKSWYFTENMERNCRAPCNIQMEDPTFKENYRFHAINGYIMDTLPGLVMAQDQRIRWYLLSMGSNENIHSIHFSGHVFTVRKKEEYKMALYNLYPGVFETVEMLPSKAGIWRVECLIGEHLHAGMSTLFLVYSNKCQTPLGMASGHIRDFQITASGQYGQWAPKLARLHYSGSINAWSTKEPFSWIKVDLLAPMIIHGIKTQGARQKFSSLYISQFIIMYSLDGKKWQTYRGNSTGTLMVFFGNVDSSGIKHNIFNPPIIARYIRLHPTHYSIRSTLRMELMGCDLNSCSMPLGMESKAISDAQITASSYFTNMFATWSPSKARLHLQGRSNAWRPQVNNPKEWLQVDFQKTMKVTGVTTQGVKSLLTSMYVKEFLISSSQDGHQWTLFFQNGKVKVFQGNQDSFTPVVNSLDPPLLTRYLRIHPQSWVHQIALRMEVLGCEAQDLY
Experimental: The candidate ligands were immobilized onto a formyl-substituted ethylene glycol-methacrylate chromatographic resin (Toyopearl Formyl 650-M, pore size of ˜1000 Å; TosoHaas, Montgomeryville, Pa.). The hydrazide-containing peptides were immobilized by facilitating hydrazone bond formation, the GI-1 and -2 peptides were immobilized via reductive amination using NaCNBH3. The amount of polypeptide immobilized on the solid support was determined by quantifying the amount of free polypeptide remaining in solution. The amount of ligand immobilized per ml of resin was in the range of 0.7-1.5 μmol for the hydrazine-immobilized peptides.
The nine peptides were evaluated by affinity chromatography for their ability to capture the REFACTO® described in Example I, under specific binding and release conditions.
The factor VIII-like polypeptide (REFACTO®) was diluted in SP Buffer to a concentration of 150 μg/ml. The affinity resins (˜350 μl) were each packed into glass columns, and approximately 150 μg of the factor VIII target was applied to the prepared affinity columns at a flow rate of 200 μl/minute (linear velocity of 170 cm/hour). […] Fractions were collected and the mass and activity of recovered factor VIII-like polypeptide was determined by reversed-phase HPLC and by enzymatic assay.
For the mass determination, a standard curve with REFACTO® (0-200 μg) was generated and the amount present in each fraction was calculated according to techniques well known in the art. Reversed-phase HPLC in the presence of 20 mM EDTA was used to disrupt the REFACTO® molecule into its component subunits, which were eluted with a gradient of acetonitrile/0.01% TFA. The activity assay was a Factor IX-, X-based assay. The results for each affinity resin are set forth below (Table 6).

| Substance | peptide stability (in words) [1] | capture of the factor VIII target by the affinity resin (in words) [2] |
| --- | --- | --- |
| Acetyl-AEGTGDHRCGSWLHPCLAEPGEGGGGSK (Ac-AEGTGDHRCGSWLHPCLAEPGEGGGGSK; disulfide 9-16 (inferred)) [TN8.2, cyclic disulfide peptide, GI-2 with Asp at position 19 changed to Glu] | improved peptide stability | – |
| AEGTGDHPCGSWLRPCLHDPGPEGGGS-NHNH2 (disulfide 9-16 (inferred)) [CS-453] | – | captured virtually all of the factor VIII target applied |
| AEGTGDFCWVFPFQHCADPGPEGGGS-NHNH2 (disulfide 8-16 (inferred)) [CS-459] | – | captured virtually all of the factor VIII target applied |
| AEGTGDFHCIGVWFCLHDPGPEGGGS-NHNH2 (disulfide 9-15 (inferred)) [CS-455] | – | inability of the CS-455 and GI-1 resins to capture the target |
| Ac-AEGTGDRLCSWVSPCSADPEGGGSK (cysteine pairing not given here) [GI-1] | – | inability of the CS-455 and GI-1 resins to capture the target |
